One substance from PMC2975869 can be followed below.

For the experiment, the target named is HA-tagged M593A-PTH1R (UniProt Q03431). The experiment can be described thus: radioligand binding.

Regarding [125I]-PTH(1-34)NH2 (peptide), the Total Binding (TB), cells co-transfected with EBP50 stood at 1290 and the Total Binding (TB), cells co-transfected with pcDNA3 was determined as 1180.
